Laboratory results from US20130324477A1 (L OREAL, published 2013).

Target: T1, filaggrin-2 (FLG2) fragment identified as prey in the double-hybrid screens, corresponding to amino acids … (human, UniProt Q5D862 2-213)
T1 construct: range 2-213; Prey
T1 sequence (looked up): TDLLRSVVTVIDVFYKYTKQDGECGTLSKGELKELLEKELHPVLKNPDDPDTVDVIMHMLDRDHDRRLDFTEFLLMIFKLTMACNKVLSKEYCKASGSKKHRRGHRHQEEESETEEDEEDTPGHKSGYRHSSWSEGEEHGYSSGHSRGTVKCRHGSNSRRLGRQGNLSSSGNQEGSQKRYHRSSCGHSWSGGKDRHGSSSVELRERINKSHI
Assay: supplementary double-hybrid experiments

B1: N-terminal fragment of SASPase-28 (amino acids 11-86, SEQ ID No.: 16) (peptide)
chain: RQHAFVPEPFDGANVVPNLWLHSFEVINDLNHWDHITKLRFLKESLRGEALGVYNRLSPQDQGDYGTVKEALLKAFG
- binding result: binds
